Publication PMC10138348, “Continuous Fluorescent Sirtuin Activity Assay Based on Fatty Acylated Lysines” (International Journal of Molecular Sciences, 2023)

Key:
[1] = target: F6, deacylated fluorescein-labelled peptide product of F4 (fluorophore in +2 position); experiment: other fluorescence titration; fluorescence spectra of the labelled peptide with increasing concentrations of BSA; excitation 490 nm, relative intensity at 517 nm against BSA concentration; n = 1
[2] = target: F4, TNFα-derived peptide with a myristoylated lysine and fluorescein-labelled cysteine in the +2 position; experiment: as above
[3] = target: F6, deacylated fluorescein-labelled peptide product of F4 (fluorophore in +2 position); experiment: fluorescence polarisation; BSA in serial dilution from 752 µM, labelled peptide fixed; 384-well plate, 20 mM Tris-HCl pH 7.8, 150 mM NaCl, 5 mM MgCl2; three independent replicates
[4] = target: F4, TNFα-derived peptide with a myristoylated lysine and fluorescein-labelled cysteine in the +2 position; experiment: as above

Chain of bovine serum albumin (P02769 25-607): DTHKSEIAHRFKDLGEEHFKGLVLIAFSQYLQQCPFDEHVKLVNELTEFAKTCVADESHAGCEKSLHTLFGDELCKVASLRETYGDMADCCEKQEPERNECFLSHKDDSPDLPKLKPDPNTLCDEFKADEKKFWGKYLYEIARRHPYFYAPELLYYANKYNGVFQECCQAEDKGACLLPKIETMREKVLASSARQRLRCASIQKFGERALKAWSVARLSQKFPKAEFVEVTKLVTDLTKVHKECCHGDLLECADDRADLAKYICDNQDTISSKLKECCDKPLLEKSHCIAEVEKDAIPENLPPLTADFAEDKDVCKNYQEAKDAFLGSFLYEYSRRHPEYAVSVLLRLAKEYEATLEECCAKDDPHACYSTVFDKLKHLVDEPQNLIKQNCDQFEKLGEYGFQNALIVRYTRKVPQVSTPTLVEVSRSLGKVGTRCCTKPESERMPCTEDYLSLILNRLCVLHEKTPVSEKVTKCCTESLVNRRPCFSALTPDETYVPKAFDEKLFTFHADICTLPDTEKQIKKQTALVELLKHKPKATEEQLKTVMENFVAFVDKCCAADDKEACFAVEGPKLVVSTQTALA

## bovine serum albumin (from UniProt P02769 25-607) (natural protein)
[1]
  fold KD against the F4/BSA complex: > 100 fold
[2]
  Kd: 1200 nM
[3]
  fold KD against the F4/BSA complex: > 100 fold
[4]
  Kd: 1600 nM
